Data on three proteins can be found in PMC6336799, “Novel non-phosphorylative pathway of pentose metabolism from bacteria” (Scientific Reports, 2019).

Holding throughout (assay type): biochemical, Herbaspirillum huttiense
Substrate in data set [1]: C[C@H](O)[C@@H](O)CC(=O)C(=O)O
Nature of the data set: spectrophotometric NADH formation. The conditions noted are these: NAD+ as coenzyme, 50 mM Tris-HCl pH 9.0.

Substrate in data set [2]: O=C(O)C(=O)C[C@H](O)CO
Nature of the data set: spectrophotometric NADH formation. The conditions noted are these: NAD+ as coenzyme, 50 mM Tris-HCl pH 9.0.

Substrate in data set [3]: O=C(O)C(=O)C[C@@H](O)CO
In words: coupled spectrophotometric assay (alpha-KGSA dehydrogenase). The conditions noted are these: 50 mM HEPES-NaOH pH 7.2, 1.5 mM NAD+ for coupling enzyme, 1 mM MgCl2 if necessary.

Substrate in data set [4]: O=C(O)C(=O)C[C@H](O)CO
The description is as above. The conditions noted are these: 50 mM HEPES-NaOH pH 7.2, 1.5 mM NAD+ for coupling enzyme, 1 mM MgCl2 if necessary.

Substrate in data set [5]: O=C(O)[C@@H](O)[C@H](O)[C@H](O)CO
Nature of the data set: purified protein. The note with it: 50 mM HEPES-NaOH pH 7.2, 1.5 mM NAD+ for coupling enzyme.

Substrate in data set [6]: O=C(O)[C@@H](O)[C@H](O)[C@H](O)[C@H](O)CO
Nature of the data set: purified protein. The note with it: 50 mM HEPES-NaOH pH 7.2, 1.5 mM NAD+ for coupling enzyme.

B1: C785_RS13675 (D-KDP/L-KDF 4-dehydrogenase) (Herbaspirillum huttiense subsp. putei IAM 15032) (protein)
chain: MSASTGRLAGKTVLITAAAQGIGRASTELFAREGARVIATDISKTHLEELASIAGVETHLLDVTDDDAIKALVAKVGTVDVLFNCAGYVAAGNILECDDKAWDFSFNLNAKAMFHTIRAVLPGMLAKKAGSIVNIASAASSVKGVANRFAYGASKAAVVGLTKSVAADFVSQGIRCNAICPGTIESPSLNQRISTQAKETGKSEDEVRAAFVARQPMGRIGKAEEVAALALYLASDESNFTTGSIHMIDGGWSN
notes: full length, N-terminal (His)6-tag (pQE-80L), expressed in E. coli DH5alpha, Ni-NTA
By Km is commonly meant the concentration of substrate that gives half-maximal velocity. The kcat is the number of substrate molecules converted per active site and unit of time at saturation. For the protein B1, in data set [1], the Michaelis-Menten constant (Km) was 169 ± 3 µM and the kcat was determined as 32.17 ± 0.483 s⁻¹. In addition, in data set [2], the Km was 1120 ± 210 µM and the kcat was 27.17 ± 3.67 s⁻¹.

B2: C785_RS13710 (KDP dehydratase) (Herbaspirillum huttiense subsp. lycopersici) (protein)
chain: MRLIQYRDLHGQRRVGIVNGASIQVLGEVDTMRELGLLAIERHTGLERLAQLLNTDRSEDYAAILAEGRILAPLDHPDPAHCRVSGAGTTHLGSATTRDKMHRRIEGDELDKTDTQLMIEWGIAGGRPAPGTVGVQPEWFYKGDGHCIVAPGQPLPRPDFALDGGEEPEIVGLYLIDDAGCPRRLGFAIGNEFSDHVMERRNYLYQGHSKLRHCAFGPELLVGLPPAHLVGMTRIRRRGRVIWEQEFLTGPDNMCHSIENLEYHTFKYAHLLHAGDVHAHFMGAANLSFAYSVRTEDGDSIEISIPDFGAPLVNGIQHVQSNLRPGGVRQL
notes: full length, N-terminal (His)6-tag, expressed in Pseudomonas putida KT2442-oxyR1 (pUCP/C785_RS13710), Ni-NTA
Consider B2, for which, in data set [3], the Km amounted to 533 ± 160 µM and the turnover number (kcat) came out at 0.202 ± 0.035 s⁻¹. Moreover, in data set [4], the Km was 1910 ± 200 µM and the kcat amounted to 0.18 ± 0.005 s⁻¹.

B3: C785_RS13685 (D-arabinonate dehydratase) (Herbaspirillum huttiense subsp. lycopersici) (protein)
chain: MKANSPIIRLNPVDDVVIARQQLISGTVLQDEGGLKVQGLIPAGHKMATRAISAGEPVKRYGQIIGTASQDIAPGQHVHTHNLAMAEFSREHHFGADVKPVDFVAEPATFMGIVRPDGRVATRNYIGVLTSVNCSATAARAIADYFRRDIHPEVLADYPNIDGVVALTHGQGCATDSQGEPLQILRRTLAGYATHPNFAAVLVVGLGCETNQISGLMESHNLKEGEYFHTFTIQGTGGTAKTVALGIEKIKKMLPKANDIKREPVSAKHLTLGLQCGGSDGYSGITANPALGAAVDLLVRHGGTAILSETPEIYGAEHLLTRRAVSPEVGEKLLARIAWWEEYCAKNDAEMNNNPSAGNKAGGLTTILEKSLGAVAKGGTTNLVDVYKYAETVTARGFVFMDTPGYDPISATGQVAGGANMICFTTGRGSAYGCAPAPSLKLATNTALWQRQEEDMDINCGEIADSNVTPQEVGERFFQMILDTASGKKTKSELHGYGQDEFVPWHIGVYT
notes: full length, N-terminal (His)6-tag (pQE-80L), expressed in E. coli DH5alpha, Ni-NTA; iron protein stored with Fe2+ and DTT
For the protein B3, the Michaelis-Menten constant (Km) in “purified protein [5]” was determined as 202 ± 3 µM; in the data set “purified protein [6]”, 5910 ± 90 µM. Further, the kcat in the data set “purified protein [5]” turned out to be 9.03 ± 0.067 s⁻¹; in “purified protein [6]”, 0.0393 ± 0.0005 s⁻¹.
